Measured values from the nanobody polyreactivity screen of Harvey et al. (2022).

Experiment: yeast display, Sf9 membrane polyspecificity reagent, FACS + sequencing; frameworks hold sequencing errors
Summary of the method: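 In a synthetic yeast display library (Saccharomyces cerevisiae BJ5465), nanobody expression was induced with galactose for 36–48 hours. FACS gates were set low and high (top ~1%) using anti-HA fluorescence for expression and streptavidin fluorescence for binding of the Sf9 membrane reagent. Each polyreactivity label is drawn from the gate of origin.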
In the case of “QVQLVVSGGGLVQAGGSLRLSCAASGRIFVINAMGWYRQAPGNERELVAAITWIGGTTYYADSVKGRFTISRDNAKNTVYLQLNSLKREDTAVYYCARQRSYGRSSYSYGYDYWGQGTQVTVSS”, the “polyreactivity (PSR sort gate)” value was “high polyreactivity”. With “QVQLVESGGGLVQAGGSLRLSCAASGSIAHYAMGWYRQAPGKERELVAAINWSGGSTNYADSVKGRFTISRDNAKNTVYLQMNSLKPEDTAVYYCNAAGGYKPYLQDVASRYDYWGQGTQVTVSS” the “polyreactivity (PSR sort gate)” value was “high polyreactivity”. In the case of “QVQLVESGGGLVQAGGSLRLSCAASGRIFKTYAMGWYRQAPGKERELVAAITASGGRTYYADSVKGRFTISRDNAKNTVYLQMNSLTPEDSAVYYCAAPLLRDLRSPYSYNYWGQGTQVTVSS”, the “polyreactivity (PSR sort gate)” value was “low polyreactivity”. With “QVQLVESGGDLVQAGGSLRLSCAASGITFRRYTMGWYRQAPGKERELVAAISSGGSTNYADSVKGRFTISRDNAKNTVYLQMNSLKPEDTAVYYCAATRRYIQYGYDYWGQGTQVTVSS” the “polyreactivity (PSR sort gate)” value was “high polyreactivity”. With “QVQLVESGGCLVQAGGSLRLSCASSGSTFSPNDMGWYRQAPGKESELVADISNYADSVKGRFTISRDNAKNTVYLQMNSLKPEDTAVYYCAAEWRGDRYRLYVVSWWYDYWGQGTQVTVSS” the “polyreactivity (PSR sort gate)” value was “low polyreactivity”. In the case of “QVQLVESGGGLVQAGGSLRLSCAASGSTFSRYTMGWYRQAPGKERELVAAIRRSGASTYYADSVKGRFTISRDNAKNTVYLQMNSLKPEDTAVYYCAVGRYRYGYWGQGTQVTVSS”, the “polyreactivity (PSR sort gate)” value was “high polyreactivity”. With “QVQLVESRGALVQAGGSLRLSCAASGYIFYSNAMRWYRQEPGKERELVAAITSGRGSTYYADSVKGRFTISRDNAKNTVYLQMNSLIPEDTAVYYCDVSIGRYPYRYGYWGQGTQVTVSS” the “polyreactivity (PSR sort gate)” value was “high polyreactivity”. With “QVQLVESGGGLVQAGGSLRLSCAASGLTFDGYAMGWYRQAPGKERELVARITRNGGITYYADSVKGRFTISRDNAKNTVYLQMNSLKPEDTAVYYCAAGQRLWKYYGVIGWTVTNYYYWGQGTQVTVSS” the “polyreactivity (PSR sort gate)” value was “high polyreactivity”. In the case of “QVLLVESGGGIVQAGGSLRLSCAASGSIIEPNAMGWYRQEPGQEREFVAAISGSGGSTYYADSVKGRFTSSRDNAKNTVYLQRNSLKPEYSAVYYCNALYLRTTPQDYDYWGQGTQVTVSS”, the “polyreactivity (PSR sort gate)” value was “high polyreactivity”. In the case of “QVQLVESGGGLVQAGGSLRLSCAASGSTFDYYTMGWYRQAPGKERELVAAISRSGGSTRYADSVKGRFTISRDNAKNTVYLQMNSLKPEYTAVYYCAAKLWRYYHYDYWGQGTQVTVSS”, the “polyreactivity (PSR sort gate)” value was “low polyreactivity”. For “QVQLVESGGGLVQAGGSLRLSCAASGRIFQGYAMGWYRQAPGKERELVARITSGSNTNYADSVKGRFTISRDNAKNTVYLQMNSLKPEDTAVYYCAKEPVGSVRYGRFQQDDYWGQGTQVTVSS”, the “polyreactivity (PSR sort gate)” value was “low polyreactivity”. For “QVQLVESGGGLVQAGGSLRLSCAASGSIFRGNAMGWYRQAPGKERELVAAITRSGGRTYYADSVKGRFTISRDNANNTVYLQMNCLKPEDTAVYFCAADYPYGSPTHFDYWGQGTQVTVSS”, the “polyreactivity (PSR sort gate)” value was “high polyreactivity”. In the case of “QVQLVESGGGLVQAGGSLRLSCAASGSTFYPNAMGWYRQAPGKERELVAAITSGGSTYYADSVKGRFTSSRDNAKNTVYLQMTSLKPEDTAVYYCAAQRRYHQDTTIGPGNYSYWGQGTQVTVSS”, the “polyreactivity (PSR sort gate)” value was “low polyreactivity”. In the case of “QVHLVESGGGLVQAGGSLRISCAASGLTFQRYAMGWYRQAPGKERELVASITGNGGSTYYADSVKGRFTISRDNAQNSVYLQMNSLKPEDTAVFYCNARRYVRTSQQPLYDYWGQGTQVTVSS”, the “polyreactivity (PSR sort gate)” value was “high polyreactivity”. In the case of “QVQLVESGGGLVQAGGSLRLSCAASGFTFNAYAMGWYRQAPGKERELVAAINVSGGITYYADSVKGRFTISRDIAKNTVYLQMNSLKPEDTAVYYCAADVEWTSRGSYYRYYYWGQGTQVTVSS”, the “polyreactivity (PSR sort gate)” value was “low polyreactivity”. For “QVQLVESCGGLDQAGGSLRLSCAASALTFVDNAMGWYRQAPGKERELVAAISYNGGSTYYADSVKGRFTISRDNAKNTVYLQMNCLKPEDTAVYYCAADISVGRYGDMDYWGQGTLVTVSS”, the “polyreactivity (PSR sort gate)” value was “low polyreactivity”. For “QVHLVESGGGLVQAGGSLRLSCAASGFTFSSNAMGWYRQAPGKERELVADISFNSTSTYYADSVKGRFTISRDNAKNTVYLQMNSLKPEDTAVYYCAADVPRVQSEPEYDYWGQGTQVTVSS”, the “polyreactivity (PSR sort gate)” value was “low polyreactivity”. In the case of “QVQLVESGGGLVQAGGSLRLSCAASGSTFGKYAMGWYRQAPGKERELVAAITNGGRTNFADSVKGRFTISRDNAKNTVYLQMNSLKPEDTAVYFCNKARYGTDDYEYWGQGTQVTVSS”, the “polyreactivity (PSR sort gate)” value was “low polyreactivity”. For “QVQLVESGGGLVQAGGSLRLSCAASGSIFDDYTMVWYRQAPGKEREFVATITSSGSTYYADSVKGRFTISRDNAKNTVYLQMNSLKPEDTAVYYCNADDTYYPLGGITGYDYWGQGTQVTVSS”, the “polyreactivity (PSR sort gate)” value was “low polyreactivity”. In the case of “QVQLVESGGCLVQAGGSLPLSSAASGSTFSYNDMGSDRQAPGKARELVADINVSVGRTYYADSVKGRFTISRDNAKNTVYLQMNSLKPEDTAVYYCAKDYYRYHYYYCGQGTQVTVSS”, the “polyreactivity (PSR sort gate)” value was “low polyreactivity”. With “QVQLVESGGGLVQAGGSLRLSCAASGSIFRSYAMGWYRPAPGKERELVAAISSGGRTKYADSVKGRFTISRDNAKNTVYLQMNSLKPEDTAVYYCAARAYYARFLMGYWGQGTQVTVSS” the “polyreactivity (PSR sort gate)” value was “high polyreactivity”. With “QVQLVESGGGLVQAGGSLRLSCAASGSIFDPYAMGWYIQAPGKERELVAVINDGGRTTYADSVKGRFTISRDNAKNTVYLQMNSLKPEDTAVYYCAADVGYFKSDYWGQGTQVTVSS” the “polyreactivity (PSR sort gate)” value was “low polyreactivity”. In the case of “QVQLVESGGGIVQAGGSLRLSCAASGNTFYTYAMGWYRQAPGKERELVAAITSGGRTYADSVKGRFTISRDNATNTVYLQMNSLKPEDTAVYYCAADFPGFYYVYPGDYWGQGTQVTVSS”, the “polyreactivity (PSR sort gate)” value was “low polyreactivity”. In the case of “QLQLVESGGGLVQAGGSLRLSCAASGRIFVRYAMGWYRQAPGKERELVAAISGRGTSTYYADSVKGRFTISRDNAKNTVYLQMNSLKPEDTAVYDCNTFSQPKWGTSDYDYWGQGTQVTVSS”, the “polyreactivity (PSR sort gate)” value was “high polyreactivity”. In the case of “QVQLVESGGGLVQAGGSLRLSCAASGRTFVNNAMGWYRQAPGKERELVAAISQSGSRTYYADSVKRRFTISRDNAKNSVYLQMNSLNTEDTAVYDCAARGARSSTSDDWGQGTQVTVSS”, the “polyreactivity (PSR sort gate)” value was “high polyreactivity”. For “QVQLEEAVGGLLQAGGSLRFSCAASGGLFWVYAMGRYRQAPGKERELVAAISNSDTSTSYADSVKGRFTISRDNAQNTVYLQMNSLKAEDTAVYYCKADSPSLSGDSWGQGTQVNVSS”, the “polyreactivity (PSR sort gate)” value was “low polyreactivity”. In the case of “QVQLVESGGGLVQAGGSLRLSCAASGSTFNKYTMGWYRQAPGKERELVAAITSGDSTYYADSVKGRFTISRDNAKNTVYLQMNSLKPEDTAVYYCAADVRYFDPFDWWGSLVLAYDYWGQGTQVTVSS”, the “polyreactivity (PSR sort gate)” value was “low polyreactivity”. For “QVQLVESGGGLVQAGGSLRLSCAASGFTFDSNAMGWYIQAPGKERELVAAISTGGSTYYADSVKGRFTISRDNAKNTVYLQMNSLKPEDTAVYYCARDPPYPDTWYGYWGQGTQVTVSS”, the “polyreactivity (PSR sort gate)” value was “low polyreactivity”. In the case of “QDHLVESGGGLVQAGGSLRLSCSASGRTFGTYAMGWYRQAPGKERELVATISSGGSTYYADSVKGRFTISRDNAKNTGYLQMNSLKPEDTAVYYCADYRYFRPGDYWGQGTQVTVSS”, the “polyreactivity (PSR sort gate)” value was “low polyreactivity”. In the case of “QVQLVESGGGLVQAGGSLRLSCDASGITFDDYSRGWYRQAPGKERELVAAISGSGGSTYYADSVKGRFTISRDNAKNTVFLQMHSLKPEDTAVYYCAASGPEGQYLWYDYWGKGTQVTVSS”, the “polyreactivity (PSR sort gate)” value was “high polyreactivity”. With “QVQLVESGGGLVQAGGSLRLSCAASGIIFESYAMGWYRPAPGKERELVAAISWDGGSTYYADSVKGRFTISRDNAKNTVYLQMNSQKPEDTAVYYCAAESYGIYDGYDYWGQGTQVTVSS” the “polyreactivity (PSR sort gate)” value was “high polyreactivity”. With “QVQLVESGGGLVHAGGSLRLSCAASGSIFWYYTMGSYRQAPGKERELVATIRWRSGSTYYADSVKGRYTISRDNAKNTVYLQMNTQKPEDTAVYYCAADLYSAVYFSRWSDYWGQGTQVTVSS” the “polyreactivity (PSR sort gate)” value was “high polyreactivity”. In the case of “QVHLVESGGGLVQAGGSLRLSCAASGFTFRGYAMGWYRQAPGTERELVAAVSGSGGRTHYADSVKGRFTISRDNAKNTVYLQMNSLKPEDTAVYYCNARGRASATGRRGRPDPFGYWGQGTQVTVSS”, the “polyreactivity (PSR sort gate)” value was “high polyreactivity”. With “QVQLVQSGGGLVQAGGRLRLSSAASGRTFEPNAMGWYRQAPGKERELVAAITNGGSTSYADSVKGRFTISRDNAKNSVYLQMNSLKPEDTAVYDFAGDLGRNLLHTYYYWGQGTQVTVSS” the “polyreactivity (PSR sort gate)” value was “low polyreactivity”. In the case of “QVQLVESGGGLVQAGGSLRLSCAASGSIVPYNVMGWYRQAPGKERELVAAITRRGGSTYYADSVKGRFTISRDNAKNTVYLQMNSLKPEDSAVYYCAAVPYPRGKGYDYWGQGTQVTVSS”, the “polyreactivity (PSR sort gate)” value was “high polyreactivity”. With “QVQLVESGGGLVQAGGSLRLSCAASGFTLARYAMGWYRPAPGKERELVAALTQSGVSTYYADSVKGRFTISRDNAKNTVYLQMNSLKPEDTAVYYCNALLRRTDYRYTWGYGYWGQGTQVTVSS” the “polyreactivity (PSR sort gate)” value was “high polyreactivity”. In the case of “QVQLVESGGGLVQAGGSLRLSCAASGSTFSWNTMGWYRQAPGKERELVAAISRRGGSTYYADSVKGRFTISRDNAKNTVYLQMNSLKPEDTAVYYCNAKYYYGHRPATAGRYYYWGQGTQVTVSS”, the “polyreactivity (PSR sort gate)” value was “high polyreactivity”. With “QVQLVESGGGLVQAGGSLRLSCAASGRIFKRNAKGWYRQAPGKEWELVATISGSGGSTYYADSVKGRFTISRDNAKNTVYLQMNSLKPEDTAVYYCAAVPGYPRDSLYNYWGQGSQVTVSS” the “polyreactivity (PSR sort gate)” value was “high polyreactivity”. With “KVQLVESGAGLVQAGGSLRLSCAASGITFVRYVMGWYRQAPGKERELVAAISNSGGRTYYADSVKGRFTISRDNAKNTVYLQMNSLKPEDTAVYYCARRAGSYPYGYTGYDYWGQGTLVTVSS” the “polyreactivity (PSR sort gate)” value was “high polyreactivity”. In the case of “QVQLVETGGGLVQAGGSLRLSCAASGSIFLGNAMGWYRQAPGKERELVAAISGGDSTNYADSVKGRFTISRDNAKNTVYLQMKSLKPEDTAVYYCNALTHWAPASYEYDYWGQCTQVTVSS”, the “polyreactivity (PSR sort gate)” value was “low polyreactivity”. With “QVQLVESGRGLVQAGGRLRLSCAASGFTFNRYTMGGYRQAPGKEREFVASITRSGGSTYYADSVKGRFTISRDNAKNTVYLQMNSLTPEDTAVYYCAPVYQYSSRYDHWGQGTQVTVSS” the “polyreactivity (PSR sort gate)” value was “high polyreactivity”. For “QVQLVESGGGLVQAGGSLRLSCAASGIIIRSYAMGWDRQAPGKERELVAAITRSGGSTYADSVKGRFTISRDNAKNTVYLQKNSLKPEDTAVYYCAADRYSGWVYRRDDWGQGTQVPVSS”, the “polyreactivity (PSR sort gate)” value was “low polyreactivity”. In the case of “QVQLVESGGGLVQAGGSLRLSCAASGSTFEAYAMGWYRQGPGKERELVAAINFTGGRTYYADSVKGRFTISRDNAKNTVYLQMNSLKPEDTAVYYCAARKWGVPYIDNDYWGQGTQVTVSS”, the “polyreactivity (PSR sort gate)” value was “low polyreactivity”.
